Drawing on patent US20100081170A1, this text covers Kd, Ka and EC50 (read off the curve) for 2 substances.

Experiment [1] has as its target native human CD20 on isolated normal human B cells (human) (UniProt P11836). Description: Scatchard analysis, unlabeled against 125I-IgG on human B cells, Donor 1.
Experiment [2] has the same target. Description: Scatchard analysis, unlabeled against 125I-IgG on human B cells, Donor 2.
For experiment [3] the target is unchanged. Description: Scatchard analysis, unlabeled against 125I-IgG on human B cells, Donor 3.
The target of experiment [4] is His-tagged human CD20 expressed in E. coli (human) (UniProt P11836). The experiment in a line: SPR (BIAcore-3000), rituximab IgG immobilised on CM5, CD20 in 0.1% DDM as analyte, 1:1 model. On the technique in general: Surface plasmon resonance follows binding to a sensor surface in real time, without labels.
The target is the same in experiment [5]. The experiment in a line: ELISA, CD20 coated on the plate, rituximab titrated, detection with HRP goat anti-human F(ab')2, absorbance 450 nm. (In general: ELISA stands for enzyme-linked immunosorbent assay.)
For experiment [6], the target named is human CD20 expressed with the LE leader (LE.CD20), leader and His-tag removed with thrombin (human) (UniProt P11836). The description is as above.
Experiment [7] has as its target human CD20 expressed with the sLE leader (sLE.CD20), leader removed with thrombin (human) (UniProt P11836). The description is as above.
The next experiment concerns the target Reduced, Reoxidized. Description: ELISA, reduced and re-oxidized CD20 coated on the plate, rituximab titrated, detection with HRP goat anti-human F(ab')2, absorbance 450 nm.
In experiment [8] the target is native human CD20 on isolated normal human B cells (human) (UniProt P11836). The experiment in a line: Scatchard analysis, unlabeled against 125I-Fab on human B cells, Donor 4.
Experiment [9] has the same target. The experiment in a line: Scatchard analysis, unlabeled against 125I-Fab on human B cells, Donor 5.
For experiment [10], the target named is His-tagged human CD20 expressed in E. coli (human) (UniProt P11836). The experiment in a line: SPR (BIAcore-3000), rituximab Fab immobilised on CM5, CD20 in 0.1% DDM as analyte, 1:1 model.
Experiment [11] concerns the target C2S mutant of human CD20 (Cys111Ser, Cys220Ser), His-tagged (human) (UniProt P11836). Description: SPR (BIAcore-3000), rituximab Fab immobilised on CM5, C2S-CD20 in 0.1% DDM as analyte, 1:1 model.
The target is the same in experiment [12]. The experiment in a line: SPR (BIAcore-3000), rituximab Fab immobilised on CM5, affinity purified C2S-CD20 as analyte, 1:1 model.

Reduced, Reoxidized, sequence (CD20 polypeptide, as listed by the source): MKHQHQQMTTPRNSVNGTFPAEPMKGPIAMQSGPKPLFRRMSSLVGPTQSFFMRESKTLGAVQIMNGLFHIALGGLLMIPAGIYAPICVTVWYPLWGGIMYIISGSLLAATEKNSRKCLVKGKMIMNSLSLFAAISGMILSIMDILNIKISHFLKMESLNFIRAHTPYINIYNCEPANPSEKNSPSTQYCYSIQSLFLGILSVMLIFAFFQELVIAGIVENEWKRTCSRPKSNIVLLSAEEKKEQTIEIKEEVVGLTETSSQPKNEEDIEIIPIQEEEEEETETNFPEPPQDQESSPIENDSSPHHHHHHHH

For orientation: Kd means a measure of binding affinity in units of concentration. What is called EC50 (read off the curve) is the midpoint of the concentration-response curve. Turning to rituximab full length antibody, the results for the Kd in experiment [1], in [2] and in experiment [3] were 0.32 nM, 0.72 nM and 1.27 nM, respectively. The Ka in [4] was determined as 6.6e+06 M⁻¹. Also, the EC50 (read off the curve) in experiment [5] stood at 0.5 nM; in experiment [6], 0.5 nM; in [7] it was 0.4 nM; with Reduced, Reoxidized, 50 nM.

For rituximab Fab, the dissociation constant Kd in [8] came to 52 nM; in experiment [9], 63 nM; in experiment [10], 280 nM; in experiment [11] it was 230 nM; in experiment [12], 190 nM. Besides, the Ka came to 3.5e+06 M⁻¹ in experiment [10], 4.4e+06 M⁻¹ in [11] and 5.4e+06 M⁻¹ in experiment [12].
